A short description of this series: yeast display, Sf9 membrane polyspecificity reagent, FACS + sequencing; frameworks hold sequencing errors. The method, boiled down:
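Galactose induction of a Saccharomyces cerevisiae BJ5465 synthetic nanobody display library ran 36–48 hours. The cells were then stained for 1 hour at 4 °C with 10% biotinylated, detergent-solubilized Sf9 membrane reagent, pulled down on streptavidin microbeads and FACS-sorted into low and high (top ~1%) gates on expression and reagent-binding fluorescence. Labels for polyreactivity follow the gate of origin.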
For “QVQLVESGGGLVQAGGSLRLSCAASGFTIYFKAMGWYRQAPGKERELVAAISFSGGGTYYADSVKGRFTISRDNAKNTFYLQMNSLKPEDTAVYYCAADWYDWVSTYDYWGQGTQVTVSS”, the “polyreactivity (PSR sort gate)” value was “low polyreactivity”.

Regarding “QVQLVESGGGLVQAGGSLRLSCAASGFTKAYAMGWSRQAPGKERELVAVISDRAGSTYYADSVKGRFTISRDNPKNTVYLQMNSLKPEDTAVYYCAADGIGYSYHGRPYIYEYWGQGTQVTVSS”, the “polyreactivity (PSR sort gate)” value is on record as “low polyreactivity”.

As for “QVQLVESGGGLVQAGGSLRLSCAASGFTLDDYAMGWYRQAPGKEREWVAAITSGGTYADSVKGRFTISRDNAKNTVYLQMNSLKPEDTAVYYCNAGNNVVVDYDYWGQGTQVTVSS”, the “polyreactivity (PSR sort gate)” value is recorded as “low polyreactivity”.

With “QVQLVESGGGLVQAGGSLRLSCAASGFTLDWYVMGWYRQAPGKEREFVASIRYSGGSTYYADSVKGRFTISRDNAKNTVYLQMNRLKTEDTAVYYCAARTVTLSYLYYYWGQGTQVTVSS”, the “polyreactivity (PSR sort gate)” value is recorded as “high polyreactivity”.

On to “QVQLVESGGGLVQAGGSLRLSCAASGFTLEYYAMGWYRQAPGKERELVASISSGGRTNYADSVKGRFTISRDNAKNTVYLQMNSLKPEDTAVYYCAAEYRSWGRYRYRFNYWGEGTQVTVSS”, for which the “polyreactivity (PSR sort gate)” value was “high polyreactivity”.

In the case of “QVQLVESGGGLVQAGGSLRLSCAASGFTLFGYAMGWYRPAPGKERELVAAITSGDGRTYYADSVKGRFTISRDNAKNTVYLQMNSLKPEDTAVYYCAATRYSSYYYVRHDHWGQGTQVTVSS”, the “polyreactivity (PSR sort gate)” value is listed as “low polyreactivity”.

As for “QVQLVESGGGLVQAGGSLRLSCAASGFTLGGNALGWYRQAPGKERELVAAITFSGGSTYYADSVKGRFTISRDNAKNIVYLQMNSLKPVDTAVYYCAKTHGYYYYYTYDYWGQGTQVTVSS”, the “polyreactivity (PSR sort gate)” value was “low polyreactivity”.

Regarding “QVQLVESGGGLVQAGGSLRLSCAASGFTLGRYAMGWYRQAPGKEREFVAAISRGGGSTNYADSVKGRFTISRDNAKNTVYLQMNSLKPEDTAVYYCAADDHTSGYGYWGQGTQVTVSS”, the “polyreactivity (PSR sort gate)” value is listed as “high polyreactivity”.

As to “QVQLVESGGGLVQAGGSLRLSCAASGFTLGSNVMGWYRQAPGKERELVAGISQSGGRTFYADSVKGRFTISRDNSKNTVYLQMNSLKPEDTAVYYCAARRYAVEGSKNYYWGQGTQVTVTS”, the “polyreactivity (PSR sort gate)” value is recorded as “low polyreactivity”.

“QVQLVESGGGLVQAGGSLRLSCAASGFTLGSYAMGWYRQAPGKDRELVARISSDGSTNYADSVKGRFTISRDNAKNTVYLQMNSLKPEDTAVYYCAADFTYYDSPYRDYNYESWGQGAQVTVSS”: the “polyreactivity (PSR sort gate)” value is listed as “low polyreactivity”.

Regarding “QVQLVESGGGLVQAGGSLRLSCAASGFTLGVNAMGWYRQAPGKERELVAAISRGGSTDYADSVKGRFTISRDNAKNTVDLQMYSLKPEDTAVYYCAAETYAWYRGWEGYWGPGTQVTVSS”, the “polyreactivity (PSR sort gate)” value is reported as “high polyreactivity”.

Regarding “QVQLVESGGGLVQAGGSLRLSCAASGFTLGYNAMGWYRQAPGKERELVAGITWSGGSTSYADSVKGRFTISRDNAKNTVYLQMYSLKPADTAVYYCAKLRRYSGWLPWPYAYDYWGQGTQVTVSS”, the “polyreactivity (PSR sort gate)” value is on record as “high polyreactivity”.

Regarding “QVQLVESGGGLVQAGGSLRLSCAASGFTLHVYAMGWYRQAPGKERELVAAISTGGNTNFADSVKGRFTISRDNAKNTVYLQMNSLKPEDTAVYYCNTLGRYSSYYWGLGTQVTVSS”, the “polyreactivity (PSR sort gate)” value is given as “high polyreactivity”.

For the sequence “QVQLVESGGGLVQAGGSLRLSCAASGFTLIADDMGGYRQAPGKERELVAGISSGDSTDYADSVKGRFTISRDNAKNTVYVQMNSLTPEDTAVYYCAATWYGDYSRYDFYYWGQGTQVTVSS”, the “polyreactivity (PSR sort gate)” value is “low polyreactivity”.

Regarding “QVQLVESGGGLVQAGGSLRLSCAASGFTLKSYAMGWYRQAPGKERELVASISRRGGSTYYADSVKGRFTISRDNAKNTVYLQMNSLKPEDTAVYYCAADRSGSSDGVYWGQGTQVTLSS”, the “polyreactivity (PSR sort gate)” value is “high polyreactivity”.

On to “QVQLVESGGGLVQAGGSLRLSCAASGFTLKYYAMGWYRQAPGKERELVAAISSGDSTNYADSVKGRFTISRDNAKNTVYLQMNSLKPEDTAVYYCNTRYPSSSYYYWGQGTQVTVSS”, for which the “polyreactivity (PSR sort gate)” value is reported as “low polyreactivity”.

Turning to “QVQLVESGGGLVQAGGSLRLSCAASGFTLKYYAMGWYRQAPGKERELVAAITSSGVSTYYADSVKGRFTISRDNAKNTVYLQMNSLKPEDTAVYYCAALYWYSRSSWDYDYWGQGTQVTVSS”, the “polyreactivity (PSR sort gate)” value was “high polyreactivity”.

In the case of “QVQLVESGGGLVQAGGSLRLSCAASGFTLLKYDMGWYRQAPGKERELVAAITRRGGRTSYADSVKGRFTISRDNAKNTVYLQMNSLKPEDTAVYYCNADGDTGRFDYWGQGTQVSVSS”, the “polyreactivity (PSR sort gate)” value was “high polyreactivity”.

As for “QVQLVESGGGLVQAGGSLRLSCAASGFTLLPNAMGWYRQAPGKERELVAAITASGGRTYYADSVKGRFTISRDNAKNTVYLQMNSLKPEDSAVYYCNAGVYYYYHYTRMDYWGQGTQVTVSS”, the “polyreactivity (PSR sort gate)” value is on record as “low polyreactivity”.

As to “QVQLVESGGGLVQAGGSLRLSCAASGFTLNGYAMGWYRQAPGKERELVAAISSSGGRTYYADSVKGRFTISRDNAKNTVYLQMNSLKPEDTAVYYCAAVVYYEDGYWGQGTQVTVSS”, the “polyreactivity (PSR sort gate)” value is “low polyreactivity”.

As to “QVQLVESGGGLVQAGGSLRLSCAASGFTLPANGMGWYRQAPGKERELVAAISFIAGSTYYADSVKGRFTISRDNAKNTVYLQMNSLKPEDTAVYYCATQFPPSTIYYYWGQGTQVTVSS”, the “polyreactivity (PSR sort gate)” value is reported as “low polyreactivity”.

Turning to “QVQLVESGGGLVQAGGSLRLSCAASGFTLQSNAMGWYRQAPGKERELVAAISFRGGSTYYADSVKGRFTISRDNAKNTVYLQMNSLKPEDTAVYYCAAVQVHLREYDYWGQGSQVTVSS”, the “polyreactivity (PSR sort gate)” value is “low polyreactivity”.

Take “QVQLVESGGGLVQAGGSLRLSCAASGFTLRANAMGWYRQAPGKERELVAAITRTGGRTYYADSVKGRFTISRDNAKNTVYLQMNSLKPEDTAVYYCAADHGPSKWYDYWGQGTEVTVSS”: the “polyreactivity (PSR sort gate)” value is “low polyreactivity”.

With “QVQLVESGGGLVQAGGSLRLSCAASGFTLRGNAMGWYRPAPGKERELVAAISTGGSTYYADSVKGRFTISRDNAKNTVYLQMNSLKPEDTAVYYCARRGWFHYRYYYWGQGTQATVSS”, the “polyreactivity (PSR sort gate)” value is given as “high polyreactivity”.

As to “QVQLVESGGGLVQAGGSLRLSCAASGFTLRKYAMGWYRQAPGKEREFVATSSSRAASTYYADSVKGRFTISRDNAQNPVYLQMNSLNQEDTAVYYCNKLSPYRGFYWGQGTQVTVSS”, the “polyreactivity (PSR sort gate)” value is “high polyreactivity”.

In the case of “QVQLVESGGGLVQAGGSLRLSCAASGFTLSAYAMGWYRQAPGKERELVAGISYTGGRTYYADSVKGRFTISRDNAKNTVYLQMNSLKPEDTAVYYCNKAWSGYYKYGYWGQGTQVNVSS”, the “polyreactivity (PSR sort gate)” value is reported as “low polyreactivity”.

Consider “QVQLVESGGGLVQAGGSLRLSCAASGFTLSYYAMGWYRQAPRKERELVASISAIGGITYYADSVKGRFTISRDNAKNTVYLQMNSLKPEDSAVYYCIAGKRFTPYDYWGQGTQVTVSS”, for which the “polyreactivity (PSR sort gate)” value is reported as “high polyreactivity”.

“QVQLVESGGGLVQAGGSLRLSCAASGFTLTPYAMGWYRQAPGKERELVAAITYTGGSTYYADSVKGRFTISRDNAKNTVYLQMNSLKPEDTAVYYCAAEFLSVPYDYCYWGQGTQVTVSS”: the “polyreactivity (PSR sort gate)” value is “high polyreactivity”.

“QVQLVESGGGLVQAGGSLRLSCAASGFTLVKYVMGWYRQAPGKERELVAAINRSGTSTYYADSVKGRFTISRDNAKYSVYLQMNSLKPEDTAVYYCNADWYRKRNYWGQGTQVTVSS”: the “polyreactivity (PSR sort gate)” value was “high polyreactivity”.

Take “QVQLVESGGGLVQAGGSLRLSCAASGFTLYAYVMGWYRQAPGKERELVAAISRSGGSTYYADSVKGRFTISRDNAKNTVYLQMNSLKPEDTAVYYCAAQSKYYQYYSWGQGTQVTVSS”: the “polyreactivity (PSR sort gate)” value is recorded as “high polyreactivity”.

Take “QVQLVESGGGLVQAGGSLRLSCAASGFTLYRYAMGWYRQAPGKERELVAAISNSGGSTYYADSVKARFTISRDNAKNTVYLQMNSLKPEDTAVYYCAADPGYNVYGYYYWGQGTQVTVSS”: the “polyreactivity (PSR sort gate)” value was “high polyreactivity”.

“QVQLVESGGGLVQAGGSLRLSCAASGFTLYWNAMGWYRPAPGTERELVAGITNGGDTYYADSVKGRFTISRDNAKNTVYLQMNSLKPEDTAVYYCNVDPVYYRFHSSLSVIPGYDYWGQGTQVTVSS”: the “polyreactivity (PSR sort gate)” value is listed as “low polyreactivity”.

As to “QVQLVESGGGLVQAGGSLRLSCAASGFTLYYYTMGWYRQAPGKERELVASITGGGTTNYADSVKGRFTISRDNAKNTVYLQMNSLKPEDTAVYYCAKGYGASNDPGYVRKRYGYWGQGTQVTVSS”, the “polyreactivity (PSR sort gate)” value is “low polyreactivity”.

Turning to “QVQLVESGGGLVQAGGSLRLSCAASGFTNSMGWSTQAHGKERELVAAISYSGDSTNYADSVKGRFTISRDNAKNTVYLQMNSLKPEDTAVYYCNASSPYDYDWGQGTQVTVSS”, the “polyreactivity (PSR sort gate)” value is “low polyreactivity”.

Take “QVQLVESGGGLVQAGGSLRLSCAASGFTSKGYAMGWYRQAPGKERELVATIRSRGGGTYYADSVKGRFTISRDNAKNTVYLQMNSLKPEDTAVYYCAAERKNKYDYWGQGTQVTVSS”: the “polyreactivity (PSR sort gate)” value is reported as “high polyreactivity”.

For “QVQLVESGGGLVQAGGSLRLSCAASGFTSRKNAMGWYRQAPGKERELVAAITQSSGRTYYADSVKGRFTISRDNAKNTVYLQMNSLKPEDTAVYYCAARRGGEDDYWGQGTQVTVSS”, the “polyreactivity (PSR sort gate)” value is reported as “low polyreactivity”.

“QVQLVESGGGLVQAGGSLRLSCAASGFTSRYVMGWYRQAPGKERELVASISRSGGSTYYADSVKGRFTISRDNAKNTVYLQMNSLKPEDTAVYYCAALGLSYSSRYYHWQNEFDYWGQGSQVTVSS”: the “polyreactivity (PSR sort gate)” value is reported as “high polyreactivity”.

Regarding “QVQLVESGGGLVQAGGSLRLSCAASGFTSSRNAMGWYRQAPGKERELVATISSGGDTYYADSVKGRFPISRDNAKTTVYLQMNSLKPEDTAVYYCNKDPLYAWGYDYWGQGTQVTVSS”, the “polyreactivity (PSR sort gate)” value is given as “low polyreactivity”.

Consider “QVQLVESGGGLVQAGGSLRLSCAASGFTSTLNDMGWYRQAPGKERELVAAISNGGSTYYADSVKGRFTISRDNAKNTVYLQMNSLKPEDTAVYYCAVTATAPQEGDYWGQGTQVTVSS”, for which the “polyreactivity (PSR sort gate)” value was “low polyreactivity”.

Consider “QVQLVESGGGLVQAGGSLRLSCAASGFTVSWYVMGWYRQAPGKERELVAAITWSGGNTYADSVKGRFTISRDNAKNTVYLQMNSLKPEDTAVYYCAADPAHGTKWYVYPSHDDYWGQGTQVTVSS”, for which the “polyreactivity (PSR sort gate)” value is “low polyreactivity”.

For the sequence “QVQLVESGGGLVQAGGSLRLSCAASGFTYRNYAMGWYRQAPGKERELVAAISRGGGSTYYADSVKGRFTISRDNAKNTVYLQMNSLKPEDTAVYYCAVAYPFYVKTLFSPEADYNYWGQGTQVTVSS”, the “polyreactivity (PSR sort gate)” value is on record as “high polyreactivity”.

(Values after the nanobody polyreactivity screen of Harvey et al. (2022).)
